The results in this text go back to publication doi:10.1101/2021.09.24.461649 (bioRxiv, 2021).

The chains are these.
B1: EspC-Δ20 truncated mutant (domain or fragment)
chain: MMTENLTVQPERLGVLASHHDNAAVDASSGVEAAAGLGESVAITHGPYCSQFNDTLNVYLTAHNALGSSLHTAGVDLAKSLRIA
B2: EspC-Δ5 truncated mutant (domain or fragment)
chain: MTENLTVQPERLGVLASHHDNAAVDASSGVEAAAGLGESVAITHGPYCSQFNDTLNVYLTAHNALGSSLHTAGVDLAKSLRIAAKIYSEADEAWRKAID
B3: EspC-Δ10 truncated mutant (domain or fragment)
chain: MMTENLTVQPERLGVLASHHDNAAVDASSGVEAAAGLGESVAITHGPYCSQFNDTLNVYLTAHNALGSSLHTAGVDLAKSLRIAAKIYSEADEA
B4: EspC (ESX-1 secreted protein C), wild type (natural protein)
chain: MMTENLTVQPERLGVLASHHDNAAVDASSGVEAAAGLGESVAITHGPYCSQFNDTLNVYLTAHNALGSSLHTAGVDLAKSLRIAAKIYSEADEAWRKAIDGLFT

One data set deals with the molecule itself. As to the kind of experiment: SEC. (In gel filtration, larger molecules generally elute earlier.)
For B1, the stoichiometry N (in general, the number of molecules, sites or subunits per partner or assembly) was found to be 6.

On to B2, for which the “stoichiometry N” value is 6.

Regarding B3, the “stoichiometry N” value stood at 6.

For another data set, the target named is EccA1 ATPase, wild type (M. tuberculosis H37Rv, UniProt P9WPH9 1-573). Briefly: SPR. On the technique in general: In SPR one partner is held on a chip, and binding of the other changes the refractive index at the surface.
Chain of EccA1 ATPase, wild type (P9WPH9 whole entry): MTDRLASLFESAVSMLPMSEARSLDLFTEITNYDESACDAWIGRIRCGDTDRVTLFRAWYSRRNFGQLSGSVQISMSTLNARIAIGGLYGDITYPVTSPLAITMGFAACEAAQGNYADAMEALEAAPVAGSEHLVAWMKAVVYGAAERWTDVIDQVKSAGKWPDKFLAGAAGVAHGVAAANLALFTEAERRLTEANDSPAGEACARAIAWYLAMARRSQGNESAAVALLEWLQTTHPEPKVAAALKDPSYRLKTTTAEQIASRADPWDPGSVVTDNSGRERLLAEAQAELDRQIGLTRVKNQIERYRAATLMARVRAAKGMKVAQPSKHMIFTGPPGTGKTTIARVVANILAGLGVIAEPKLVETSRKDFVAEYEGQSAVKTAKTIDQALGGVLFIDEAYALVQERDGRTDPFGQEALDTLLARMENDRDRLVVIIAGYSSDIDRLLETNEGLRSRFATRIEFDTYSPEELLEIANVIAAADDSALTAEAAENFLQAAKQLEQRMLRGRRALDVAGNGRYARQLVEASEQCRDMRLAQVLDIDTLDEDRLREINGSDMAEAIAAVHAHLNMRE
Regarding B4, the dissociation constant (Kd) (as a rule, the constant that tells how readily two partners part at equilibrium) was roughly 0.14 µM.

In turn, B2 displayed a Kd of roughly 6.7 µM.

In turn, B3 registered a Kd of roughly 8.1 µM.
